From patent US10005838B2, “Milk fat globule epidermal growth factor 8 regulates fatty acid uptake” (REGENTS OF THE UNIVERSITY OF CALIFORNIA, priority 2013, dated 2018)

Assays:
Type in all cases: in vivo, mouse
[1] = Olive oil gavage, serum triglycerides
Protocol: (§1) 6-8 week-old mice were fasted for 4 hours and then gavaged with 15 μL olive oil per gram body weight. Mice had access to water but not food for the remainder of the experiment. In the experiments in FIGS. 3C and 3F, 50 μg/kg body weight of recombinant protein was mixed into olive oil and administered immediately to mice by gavage. In blocking antibody experiments, integrins αv (clone RMV-7) and 05 (clone ALULA) were administered by gavaging mice with 100 μL water containing 0.5 μg antibody per gram body weight 30 minutes before olive oil gavage. Triglyceride content of serum was assayed using a commercially available kit (Sigma-Aldrich) and fatty acid concentrations were quantified by Wako (Rabot, S. et al., FASEB J 24, 4948-4959 (2010)).

[2] = Liver and small intestine triglyceride content after olive oil gavage; settings: Mfge8−/− mice; 8 hours after olive oil gavage
Protocol: as §1
After experiments described above, samples from the left lobe of the liver and the proximal small intestine were isolated and rapidly frozen in liquid nitrogen for triglyceride content assays. Control mice were starved for 8 hours before their organs were harvested as above. Triglyceride content of the intestine (Uchida, A. et al., Front Physiol 3, 26) and liver (Kim, K. Y. et al., J Clin Invest 121, 3701-3712 (2011)) and fecal samples Kim, K. Y. et al., J Clin Invest 121, 3701-3712 (2011)) were quantified as described previously.

[3] = Blood glucose after IP insulin injection; settings: mice, rMfge8 co-administered with insulin, antibodies as pretreatment 15 min before insulin
Protocol: Mice were fasted for 4 hours after which they were injected with 1.5 U/kg of insulin IP. Blood was collected from the tail vein immediately before injection and then again after 15, 30, 60, and 90 minutes for evaluation of blood glucose.
In experiments using RGE or Mfge8 construct: mice received 50 μg/kg body weight of recombinant protein. In experiments using function-blocking antibodies: 6-8 week-old mice were fasted for 4 hours and then each mouse received 0.5 μg antibody (integrins αv (clone RMV-7) and β5 (clone ALULA)) per gram body weight in total volume of 200 μl, 15 minutes later each mouse received an insulin injection (1.5 U/kg, intraperitoneal injection (IP)). Blood glucose levels were measured by sampling from the tail vein of mice from 15 minutes after insulin administered.

B1: rMfge8: recombinant Milk Fat Globule Epidermal Growth Factor 8, an integrin ligand, expressed in High 5 cells (protein)
chain: ASGDFCDSSLCLNGGTCLTGQDNDIYCLCPEGFTGLVCNETERGPCSPNPCYNDAKCLVTLDTQRGDIFTEYICQCPVGYSGIHCETETNYYNLDGEYMFTTAVPNTAVPTPAPTPDLSNNLASRCSTQLGMEGGAIADSQISASSVYMGFMGLQRWGPELARLYRTGIVNAWTASNYDSKPWIQVNLLRKMRVSGVMTQGASRAGRAEYLKTFKVAYSLDGRKFEFIQDESGGDKEFLGNLDNNSLKVNMFNPTLEAQYIKLYPVSCHRGCTLRFELLGCELHGCSEPLGLKNNTIPDSQMSASSSYKTWNLRAFGWYPHLGRLDNQGKINAWTAQSNSAKEWLQVDLGTQRQVTGIITQGARDFGHIQYVASYKVAHSDDGVQWTVYEEQGSSKVFQGNLDNNSHKKNIFEKPFMARYVRVLPVSWHNRITLRLELLGC
In the case of B1, the “serum triglyceride levels after olive oil gavage” value ([1]; Mfge8−/− mice, 50 μg/kg recombinant protein mixed into olive oil) is reported as “significantly raised”, the “WT serum triglyceride levels after olive oil gavage” value ([1]; WT mice, recombinant protein mixed into olive oil) is reported as “significantly increased” and the “liver triglyceride levels after gavage” value [2] is reported as “increased significantly”. For the same molecule, the “serum glucose levels after insulin injection as compared with insulin injection alone” value [3] was “significantly higher”.
